# Assay results from US12643954B2, “Anti-CD36 antibodies and their use to treat cancer” (ONA Therapeutics, S.L., priority 2020, dated 2026).
# Like-named read-outs stand apart in the source and are kept apart here.
# B1: ONA-0-v1: murine IgA anti-CD36 antibody; heavy chain SEQ ID NO: 5, light chain SEQ ID NO: 7 (antibody)
# heavy: QVQLKQSGADLVRPGASVKLSCKASGYTFTDYYINWVKQRPGQGLEWIARIYPGSGNTYYNEKFKGKATLTAEKSSSTAYMQLSSLTSEDSAVYFCARGIGGGFGMDYWGQGTSVTVSSESARNPTIYPLTLPPVLCSDPVIIGCLIHDYFPFGTMNVTWGKSGKDITTVNFPPALASGGRYTMSSQLTLPAVECPEGESVKCSVQHDSNPVQELDVNCSPTPPPPITIPSCQPSLSLQRPALEDLLLGSDASITCTLNGLRNPEGAAFTWEPSTGKDAVQKKAAQNSCGCYSVSSVLPGCAERWNSGASFKCTVTHPESGTLTGTIAKVTVNTFPPQVHLLPPPSEELALNELLSLTCLVRAFNPKEVLVRWLHGNEELSPESYLVFEPLKEPGEGATTYLVTSVLRVSAETWKQGDQYSCMVGHEALPMNFTQKTIDRLSGKPTNVSVSVIMSEGDGICY
# light: SIVMTQTPKFLLVSAGDRITITCKASQSVSDDVAWYQQKPGQSPKLLIYYASNRYTGVPDRFTGSGYGTDFTFTISTVQAEDLAVYFCQQDYSSPLTFGAGTKLEIKRADAAPTVSIFPPSSEQLTSGGASVVCFLNNFYPKDINVKWKIDGSERQNGVLNSWTDQDSKDSTYSMSSTLTLTKDEYERHNSYTCEATHKTSTSPIVKSFNRNEC
# modifications: ONA-0-v1 heavy chain; ONA-0-v1 light chain
# Legend:
# [1] = target: T1, mouse CD36 (Mus musculus, UniProt Q08857); test: ELISA binding to plate-coated mouse CD36; details: recombinant mouse CD36 coated plates
# T1 construct: purchased Sino Biological 50422-M08H
# Method: To perform ELISA assays, 96-well ELISA plates were coated over night with human CD36 (Sino Biological, reference 10752-H08H) or mouse CD36 (Sino Biological, reference 50422-M08H) recombinant proteins at a concentration of 0.25 mg/ml. After two washes with PBS, plates were blocked with 4% skimmed milk in PBS for 1 hour at 37° C. Blocking solution was discarded and plates were washed five times with 200 μl/well PBS-Tween20 (0.5%). Primary antibodies were either omitted (control blocking solution treatment) or mixed in blocking solution at several dilutions ranging from 0.01 nM to 0.5 μM. The primary antibody solutions were added to the wells and incubated over night at 4° C. After 5 washes with 200 ul/well of PBS-Tween20 (0.5%), plates were incubated for 1 hour at room temperature with a goat anti-mouse HRP-conjugated antibody (Abeam, reference ab97235) diluted 1:2000 in blocking solution. Plates were then washed 5 times with 200 μl/well of PBS-Tween20 (0.5%), incubated with 100 μl/well TMB and detected after 10 minutes, 30 minutes, or 60 minutes with a spectrophotometer at a wave length of 630 nm.
# [2] = tested on: HCT-116 cells; test: HCT-116 orthotopic mouse model of colon cancer (Example 8); assay type: in vivo
# Method: Studies of the effects of the ONA-0-v1 anti-CD36 antibody on colon cancer were performed in BALB/c nude mice (immuno-deficient). The studies included only female mice. All mice were inoculated with commercially available HCT-116 (ATCC) cancer cells, transduced with a retroviral vector expressing luciferase. HCT-116 cells were derived from a human colorectal carcinoma (i.e., from a colon cancer). Prior to inoculation, the HCT-116 cells were cultured in a humidified incubator at 37° C. with 5% CO2, and were grown in McCoy's 5A medium supplemented with 5 μg ml^−1 penicillin/streptomycin and 10% FBS (GIBCO).
# For each mouse, 2×10^6 HCT-116 cells were inoculated via orthotopic injection. Each mouse was imaged after inoculation and one week later and liver metastasis were confirmed by ex vivo luminescence prior to start of treatment. Treatment began 14 days after inoculation with the HCT-116 cells. Inoculated mice were divided into one of two treatment groups: vehicle injection control (n=10) or ONA-0-v1 treatment (n=10). Antibody treatments were administered via intraperitoneal (i.p.) injection daily at a dose of 3 mg/kg, while control mice received an equal volume of vehicle on the same schedule. At 7, 14, and 21 days after start of treatment, all mice were imaged via IVIS. Mice were sacrificed at the end of the treatment period (day 25). Upon sacrifice, organs and tissues were collected for performance of necropsy, ex-vivo IVIS, and histopathology.
# [3] = target: CD36 (Homo sapiens, UniProt P16671); test: Surface plasmon resonance (Biacore T200) affinity for human CD36; assay type: binding; details: SPR
# Method: The affinity of ONA-0-v1, 1G04, and a commercial anti-CD36 antibody (JC63.1) for human CD36 was also measured by surface plasmon resonance (SPR) using a Biacore T200. 1G04 was analysed using a protein A capture surface, with a capture range of 100-150 RU and an antigen titration range of 3.3-333 nM. The mouse antibodies ONA-0-V1 and the commercial anti-CD36 antibody were analysed using an anti-mouse IgA capture surface, with a capture range of 160-180 RU and an antigen titration range of 3.3-333 nM. For each single analysis cycle a titration of five antigen concentrations were injected over the captured antibody and then the dissociation of the complex was measured. A double referencing method was employed in which data from the reference surfaces where no antibody was captured (fc 1 and 3 respectively) were subtracted from the antibody bound capture surface (fc 2 and 4). Blank injections of buffer were run for every antigen titration cycle and then subtracted from analyte injection cycles, to correct for small changes in the antibody capture surface density. All analysis was performed at 25° C., and the sample rack was kept at 6° C. during experimental runs. Each experiment was run at least three times with the mean binding constants generated from at least two independent assays reported. All analysis was performed in PBS-T running buffer at 40 μL/min.
# [4] = tested on: OVCAR-3 cells; test: OVCAR-3 orthotopic mouse model of ovarian cancer (Example 7); assay type: in vivo
# Method: Studies of the effects of the ONA-0-v1 anti-CD36 antibody on ovarian cancer were performed in NSG mice (immuno-deficient). The studies included only female mice. All mice were inoculated with commercially available OVCAR-3 (ATCC) cancer cells. OVCAR-3 cells were derived from a human progressive adenocarcinoma of the ovary (i.e., from an ovarian cancer). Prior to inoculation, the OVCAR-3 cells were cultured in a humidified incubator at 37° C. with 5% CO2, and were grown in RPMI-1640 supplemented with 5 μg ml^−1 penicillin/streptomycin, 0.01 mg/ml bovine inulin and 20% FBS (GIBCO).
# For each mouse, a piece of an OVCAR-3 xenograft was implanted orthotopically. […] Mice implanted with OVCAR-3 also develop metastases in both the peritoneal wall and liver.
# Treatment of the implanted mice began 23 days after implantation with the OVCAR-3 tumor pieces. Inoculated mice were divided into one of two treatment groups: vehicle injection control (n=9) or ONA-0-v1 treatment (n=9). Antibody treatments were administered via intraperitoneal (i.p.) injection daily at a dose of 3 mg/kg, while control mice received an equal volume of vehicle on the same schedule. Mice were sacrificed at the end of the treatment period. Upon sacrifice, organs and tissues were collected for performance of immunohistochemistry analysis.
# CD36, sequence (P16671 whole entry): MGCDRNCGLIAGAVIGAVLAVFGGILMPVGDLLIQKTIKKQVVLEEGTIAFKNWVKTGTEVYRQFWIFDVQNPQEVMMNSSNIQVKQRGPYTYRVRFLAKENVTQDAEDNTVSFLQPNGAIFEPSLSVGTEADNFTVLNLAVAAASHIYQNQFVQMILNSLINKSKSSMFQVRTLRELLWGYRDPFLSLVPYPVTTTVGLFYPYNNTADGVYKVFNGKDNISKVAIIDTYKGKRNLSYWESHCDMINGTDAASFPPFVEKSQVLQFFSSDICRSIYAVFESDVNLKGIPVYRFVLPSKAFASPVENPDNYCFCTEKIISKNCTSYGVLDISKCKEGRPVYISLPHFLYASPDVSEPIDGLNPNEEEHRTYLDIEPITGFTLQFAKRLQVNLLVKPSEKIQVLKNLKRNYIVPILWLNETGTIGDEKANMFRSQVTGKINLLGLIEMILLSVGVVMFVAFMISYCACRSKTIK
# T1 sequence (Q08857 30-439 limits assumed): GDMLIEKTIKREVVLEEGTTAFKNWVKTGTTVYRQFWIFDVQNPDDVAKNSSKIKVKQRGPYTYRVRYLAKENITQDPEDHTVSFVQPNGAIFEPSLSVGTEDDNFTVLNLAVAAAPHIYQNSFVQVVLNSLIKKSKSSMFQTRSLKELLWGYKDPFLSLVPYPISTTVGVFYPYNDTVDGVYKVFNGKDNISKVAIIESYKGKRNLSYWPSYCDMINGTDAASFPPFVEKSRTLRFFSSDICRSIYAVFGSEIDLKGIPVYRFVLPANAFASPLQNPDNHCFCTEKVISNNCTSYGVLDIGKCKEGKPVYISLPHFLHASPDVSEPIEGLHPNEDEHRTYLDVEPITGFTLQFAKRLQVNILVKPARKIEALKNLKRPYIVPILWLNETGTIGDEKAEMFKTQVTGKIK
molecule,measurement,setting,value
B1,binding to mouse CD36 in ELISA,[1],able to specifically bind
same,in vivo total tumor bioluminescence over time,"[2]; 3 mg/kg i.p. daily, day 21",reduced the growth of the tumor
same,"ex vivo luminescence, kidney",[2]; IVIS at sacrifice,1.08*10^6
same,"ex vivo luminescence, liver",[2]; IVIS at sacrifice,9.02*10^7
same,"ex vivo luminescence, lung",[2]; IVIS at sacrifice,1.24*10^6
same,"ex vivo luminescence, spleen",[2]; IVIS at sacrifice,1.79*10^8
same,body weight as percent of starting body weight,[2]; day 18,91.1%
same,"ex vivo primary tumor bioluminescence, average radiance",[2]; day 25,1.51*10^10
same,percentage of mice with tumors in their liver,[2]; ex vivo luminescence,60%
same,percentage of mice with tumors in their lungs,[2]; ex vivo luminescence,60%
same,ka,"[3]; 1-to-1 model, 25° C.",632000 M⁻¹ s⁻¹
same,kd,"[3]; 1-to-1 model, 25° C.",0.00354 s⁻¹
same,ka1,[3]; 2-state model,108000 M⁻¹ s⁻¹
same,ka2,[3]; 2-state model,0.000558 s⁻¹
same,kd1,[3]; 2-state model,0.0023 s⁻¹
same,kd2,[3]; 2-state model,0.000393 s⁻¹
same,ka2,[3]; bivalent model,6.74E−05 1/RUs
same,kd1,[3]; bivalent model,0.00259 s⁻¹
same,kd2,[3]; bivalent model,0.000527 s⁻¹
same,ka1,"[3]; bivalent model, first ka1 column",33400 M⁻¹ s⁻¹
same,Kd,"[3]; bivalent model, read-out: KD1",77.3 nM
same,Kd,"[3]; bivalent model, read-out: KD2",986 nM
same,average primary tumor weight,[4]; 3 mg/kg i.p. daily,1.058 g
same,decrease of primary tumor weight vs vehicle,[4]; 3 mg/kg i.p. daily,43%
same,SR (Sirius red) positive area of primary tumors,[4]; collagenous and fibrotic areas,22.5%
same,percent necrosis of primary tumors,"[4]; histology, pathologist quantification",approximately 40.71%
same,animals with large metastasis (>5 mm) in the peritoneal wall,[4]; macroscopic analysis,no large metastasis were detected
same,animals with no metastasis in the peritoneal wall,[4]; macroscopic analysis,63%
same,animals with small metastasis (1-2 mm) in the peritoneal wall,[4]; macroscopic analysis,38%
same,large liver metastasis,[4]; macroscopic analysis,6%
same,mice without metastasis in the liver,[4]; macroscopic analysis,50%
same,small liver metastasis,[4]; macroscopic analysis,44%
